In article PMC6260146:

Biological target: CR3 (CD11b/CD18) on peripheral blood monocytes (human (endogenous in peripheral blood monocytes)) (UniProt P11215)
Experiment: flow cytometry on cells; peripheral blood monocytes preincubated with unlabelled FH5-7 (14 μg/ml, 15 min on ice by the methods; 12 μg/ml, 30 min by the legend) or PBS, then a panel of FITC-, PE- or APC-labeled receptor specific antibodies, 45 min at 4°C; read-out: mean fluorescence of FH5-7 treated cells divided by PBS treated cells

recombinant fragment FH5-7 of Factor H (domain or fragment)
anti-CD11b antibody binding in the presence of FH5-7 relative to without FH5-7 (1.0) (ratio of mean fluorescence): < 0.8
